Measurements reported in the PETadex activity labels (doi:10.3390/polym4010617).

Assays:
[1] = substrate: PLA; experiment: Proxy for plastic degradation [HPLC-UV]; settings: pH 7; 37 °C
[2] = substrate: pNP-C2; experiment: Proxy for plastic degradation [Specific activity]; settings: pH 7
[3] = substrate: pNPB; experiment: Proxy for plastic degradation [Specific activity]; settings: pH 7
[4] = substrate: PLA; experiment: Proxy for plastic degradation [Released monomer concentration (HPLC/LC-MS) (LA )]; settings: pH 7
[5] = Proxy for plastic degradation [Released monomer concentration (HPLC/LC-MS) (BA)] (mmol/mol of enzyme); settings: pH 7
[6] = Proxy for plastic degradation [Released monomer concentration (HPLC/LC-MS) (TA)] (mmol/mol of enzyme); settings: pH 7
[7] = substrate: PET; experiment: as above; settings: pH 7
[8] = Proxy for plastic degradation [Released monomer concentration (HPLC/LC-MS) (HEB)] (mmol/mol of enzyme); settings: pH 7
[9] = Proxy for plastic degradation [Released monomer concentration (HPLC/LC-MS) (MHET)] (mmol/mol of enzyme); settings: pH 7
[10] = substrate: PET; experiment: as above; settings: pH 7

B1: unnamed (protein)
chain: MANPYERGPNPTNSSIEALRGPFRVDEERVSRLQARGFGGGTIYYPTDNNTFGAVAISPGYTGTQSSISWLGERLASHGFVVMTIDTNTTLDQPDSRASQLDAALDYMVEDSSYSVRNRIDSSRLAAMGHSMGGGGTLRLAERRPDLQAAIPLTPWHTDKTWGSVRVPTLIIGAENDTIASVRSHSEPFYNSLPGSLDKAYLELDGASHFAPNLSNTTIAKYSISWLKRFVDDDTRYTQFLCPGPSTGWGSDVEEYRSTCPF
- Proxy for plastic degradation [1]: 14.5 µM
- Proxy for plastic degradation [2]: 550 U/mg
- Proxy for plastic degradation [3]: 500 U/mg
- Proxy for plastic degradation [4]: 14.5 µM
- Proxy for plastic degradation [5]: 58
- Proxy for plastic degradation [6]: 18
- Proxy for plastic degradation [7]: 21.5
- Proxy for plastic degradation [8]: 53
- Proxy for plastic degradation [9]: 35
- Proxy for plastic degradation [10]: 19.8
